The values that follow come from publication doi:10.1101/543108.

The target in this assay is ATP synthase c-subunit (c10-ring) (Polytomella sp.). In words: cryo-EM structure.

Take “ATP synthase c-subunit (c10-ring) (natural protein)”: the stoichiometry N (commonly a count of units in the complex or per binding partner) was found to be 10.
